Source: patent US20120172293A1 (Takeda / Millennium, published 2012)
Starred links: 1 amine or outer side, 2 acyl side, 3 side chain; linkers in the order of their positions; H or OH if unused. Non-standard residues stand in square brackets, D forms with d. No end group written: not given here. *: point of attachment. Ala(piperidin-4-yl) = O=C([C@H](CC1CCN([*:3])CC1)N[*:1])[*:2]; Imidazole4carbonyl = O=C(c1cnc[nH]1)*; Arg(Me) = CNC(=N)NCCC[C@H](N)C(=O)O; hArg = N=C(N)NCCCC[C@H](N)C(=O)O; 4Pal = N[C@@H](Cc1ccncc1)C(=O)O; Cha = N[C@@H](CC1CCCCC1)C(=O)O; Isonicotinoyl = O=C(c1ccncc1)*; Suc = O=C(CCC(=O)[*:2])[*:1]; Iva = CC[C@](C)(N)C(=O)O; Nle = CCCC[C@H](N)C(=O)O; Aib = CC(C)(N)C(=O)O; Ahx = NCCCCCC(=O)O

B1: Ac-[D-Pro24, Ala(4Pip)25, Pya(4)26, Cha27,36, Aib28,31, Lys30]-PYY(23-36) later peak (peptide)
peptide: Ac-S[dP][Ala(piperidin-4-yl)][4Pal][Cha][Aib]NK[Aib]TRQR[Cha]-NH2
modifications: also: Ala(4Pip)25 D or L, not assigned, later peak isomer
B2: 4-Pyridinecarbonyl-[D-Pro24, Iva25, Pya(4)26, Cha27,36, Aib28,31, Lys30]-PYY(23-36) (peptide)
peptide: Isonicotinoyl-S[dP][Iva][4Pal][Cha][Aib]NK[Aib]TRQR[Cha]-NH2
SMILES: CC[C@](C)(NC(=O)[C@H]1CCCN1C(=O)[C@H](CO)NC(=O)c1ccncc1)C(=O)N[C@@H](Cc1ccncc1)C(=O)N[C@@H](CC1CCCCC1)C(=O)NC(C)(C)C(=O)N[C@@H](CC(N)=O)C(=O)N[C@@H](CCCCN)C(=O)NC(C)(C)C(=O)N[C@H](C(=O)N[C@@H](CCCNC(=N)N)C(=O)N[C@@H](CCC(N)=O)C(=O)N[C@@H](CCCNC(=N)N)C(=O)N[C@@H](CC1CCCCC1)C(N)=O)[C@@H](C)O
B3: Ac-[Arg23, D-Pro24, Iva25, Pya(4)26, Cha27,36, Aib28,31, Lys30]-PYY(23-36) (peptide)
peptide: Ac-R[dP][Iva][4Pal][Cha][Aib]NK[Aib]TRQR[Cha]-NH2
SMILES: CC[C@](C)(NC(=O)[C@H]1CCCN1C(=O)[C@H](CCCNC(=N)N)NC(C)=O)C(=O)N[C@@H](Cc1ccncc1)C(=O)N[C@@H](CC1CCCCC1)C(=O)NC(C)(C)C(=O)N[C@@H](CC(N)=O)C(=O)N[C@@H](CCCCN)C(=O)NC(C)(C)C(=O)N[C@H](C(=O)N[C@@H](CCCNC(=N)N)C(=O)N[C@@H](CCC(N)=O)C(=O)N[C@@H](CCCNC(=N)N)C(=O)N[C@@H](CC1CCCCC1)C(N)=O)[C@@H](C)O
B4: 4-Imidazolecarbonyl-[D-Pro24, Iva25, Pya(4)26, Cha27,30,36, Aib28,31]-PYY(23-36) (peptide)
peptide: Imidazole4carbonyl-S[dP][Iva][4Pal][Cha][Aib]N[Cha][Aib]TRQR[Cha]-NH2
SMILES: CC[C@](C)(NC(=O)[C@H]1CCCN1C(=O)[C@H](CO)NC(=O)c1cnc[nH]1)C(=O)N[C@@H](Cc1ccncc1)C(=O)N[C@@H](CC1CCCCC1)C(=O)NC(C)(C)C(=O)N[C@@H](CC(N)=O)C(=O)N[C@@H](CC1CCCCC1)C(=O)NC(C)(C)C(=O)N[C@H](C(=O)N[C@@H](CCCNC(=N)N)C(=O)N[C@@H](CCC(N)=O)C(=O)N[C@@H](CCCNC(=N)N)C(=O)N[C@@H](CC1CCCCC1)C(N)=O)[C@@H](C)O
B5: [Acp23, D-Pro24, Pya(4)26, Cha27,36, Aib28,31, Lys30]-PYY(23-36) (peptide)
peptide: [Ahx][dP]R[4Pal][Cha][Aib]NK[Aib]TRQR[Cha]-NH2
modifications: not fully specified (N-terminus); printed as Ac-Acp-D-Pro-Arg-Pya(4)-Cha-Aib-Asn-Lys-Aib-Thr-Arg-Gln-Arg-Cha-NH2
B6: 3-Carboxypropionyl-[D-Pro24, Pya(4)26, Cha27,36, Aib28,31, Lys30]-PYY(24-36) (peptide)
peptide: Suc-[dP]R[4Pal][Cha][Aib]NK[Aib]TRQR[Cha]-NH2
SMILES: C[C@@H](O)[C@H](NC(=O)C(C)(C)NC(=O)[C@H](CCCCN)NC(=O)[C@H](CC(N)=O)NC(=O)C(C)(C)NC(=O)[C@H](CC1CCCCC1)NC(=O)[C@H](Cc1ccncc1)NC(=O)[C@H](CCCNC(=N)N)NC(=O)[C@H]1CCCN1C(=O)CCC(=O)O)C(=O)N[C@@H](CCCNC(=N)N)C(=O)N[C@@H](CCC(N)=O)C(=O)N[C@@H](CCCNC(=N)N)C(=O)N[C@@H](CC1CCCCC1)C(N)=O
B7: Ac-[D-Pro24, Ala(4Pip)25, Pya(4)26, Cha27,36, Aib28,31, Lys30]-PYY(23-36) former peak (peptide)
peptide: Ac-S[dP][Ala(piperidin-4-yl)][4Pal][Cha][Aib]NK[Aib]TRQR[Cha]-NH2
modifications: also: Ala(4Pip)25 D or L, not assigned, former peak isomer
B8: Ac-[Glu23, D-Pro24, Iva25, Pya(4)26, Cha27,36, Aib28,31, Lys30]-PYY(23-36) (peptide)
peptide: Ac-E[dP][Iva][4Pal][Cha][Aib]NK[Aib]TRQR[Cha]-NH2
SMILES: CC[C@](C)(NC(=O)[C@H]1CCCN1C(=O)[C@H](CCC(=O)O)NC(C)=O)C(=O)N[C@@H](Cc1ccncc1)C(=O)N[C@@H](CC1CCCCC1)C(=O)NC(C)(C)C(=O)N[C@@H](CC(N)=O)C(=O)N[C@@H](CCCCN)C(=O)NC(C)(C)C(=O)N[C@H](C(=O)N[C@@H](CCCNC(=N)N)C(=O)N[C@@H](CCC(N)=O)C(=O)N[C@@H](CCCNC(=N)N)C(=O)N[C@@H](CC1CCCCC1)C(N)=O)[C@@H](C)O
B9: Ac-[D-Pro24, Iva25, Pya(4)26, Cha27,36, Aib28,31, Har30]-PYY(23-36) (peptide)
peptide: Ac-S[dP][Iva][4Pal][Cha][Aib]N[hArg][Aib]TRQR[Cha]-NH2
SMILES: CC[C@](C)(NC(=O)[C@H]1CCCN1C(=O)[C@H](CO)NC(C)=O)C(=O)N[C@@H](Cc1ccncc1)C(=O)N[C@@H](CC1CCCCC1)C(=O)NC(C)(C)C(=O)N[C@@H](CC(N)=O)C(=O)N[C@@H](CCCCNC(=N)N)C(=O)NC(C)(C)C(=O)N[C@H](C(=O)N[C@@H](CCCNC(=N)N)C(=O)N[C@@H](CCC(N)=O)C(=O)N[C@@H](CCCNC(=N)N)C(=O)N[C@@H](CC1CCCCC1)C(N)=O)[C@@H](C)O
B10: Ac-[D-Pro24, Iva25, Pya(4)26, Cha27,36, Aib28,31, Arg(Me)30]-PYY(23-36) (peptide)
peptide: Ac-S[dP][Iva][4Pal][Cha][Aib]N[Arg(Me)][Aib]TRQR[Cha]-NH2
B11: Ac-[D-Pro24, Arg(Me)25,30, Pya(4)26, Cha27,36, Aib28,31]-PYY(23-36) (peptide)
peptide: Ac-S[dP][Arg(Me)][4Pal][Cha][Aib]N[Arg(Me)][Aib]TRQR[Cha]-NH2
SMILES: CNC(=N)NCCC[C@H](NC(=O)[C@H](CC(N)=O)NC(=O)C(C)(C)NC(=O)[C@H](CC1CCCCC1)NC(=O)[C@H](Cc1ccncc1)NC(=O)[C@H](CCCNC(=N)NC)NC(=O)[C@H]1CCCN1C(=O)[C@H](CO)NC(C)=O)C(=O)NC(C)(C)C(=O)N[C@H](C(=O)N[C@@H](CCCNC(=N)N)C(=O)N[C@@H](CCC(N)=O)C(=O)N[C@@H](CCCNC(=N)N)C(=O)N[C@@H](CC1CCCCC1)C(N)=O)[C@@H](C)O
B12: 4-Imidazolecarbonyl-[D-Pro24, Nle25, Pya(4)26, Cha27,36, Aib28,31, Lys30]-PYY(23-36) (peptide)
peptide: Imidazole4carbonyl-S[dP][Nle][4Pal][Cha][Aib]NK[Aib]TRQR[Cha]-NH2
SMILES: CCCC[C@H](NC(=O)[C@H]1CCCN1C(=O)[C@H](CO)NC(=O)c1cnc[nH]1)C(=O)N[C@@H](Cc1ccncc1)C(=O)N[C@@H](CC1CCCCC1)C(=O)NC(C)(C)C(=O)N[C@@H](CC(N)=O)C(=O)N[C@@H](CCCCN)C(=O)NC(C)(C)C(=O)N[C@H](C(=O)N[C@@H](CCCNC(=N)N)C(=O)N[C@@H](CCC(N)=O)C(=O)N[C@@H](CCCNC(=N)N)C(=O)N[C@@H](CC1CCCCC1)C(N)=O)[C@@H](C)O

Assays:
[1] = target: human Y2 receptor (human) (UniProt P49146); test: cell-based or functional assay
Sequence of human Y2 receptor (human) (P49146 whole entry): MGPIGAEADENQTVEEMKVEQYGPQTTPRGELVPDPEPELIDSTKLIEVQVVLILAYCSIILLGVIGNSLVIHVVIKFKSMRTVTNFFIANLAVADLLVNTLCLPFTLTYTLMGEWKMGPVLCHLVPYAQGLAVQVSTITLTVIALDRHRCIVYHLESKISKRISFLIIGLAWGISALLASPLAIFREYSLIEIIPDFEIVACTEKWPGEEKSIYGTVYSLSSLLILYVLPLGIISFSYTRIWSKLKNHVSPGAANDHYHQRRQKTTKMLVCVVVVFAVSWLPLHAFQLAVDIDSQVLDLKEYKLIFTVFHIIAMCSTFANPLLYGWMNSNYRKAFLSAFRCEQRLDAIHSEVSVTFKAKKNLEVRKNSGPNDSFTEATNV

[2] = target: human Y2 receptor (human) (UniProt P49146); test: RBA: displacement of [125I]-PYY from hY2R/CHO membranes

| Binder | GBA EC50 Ratio ([35S]GTPγS binding) (EC50 compound/EC50 PYY(3-36)) [1] | IC50 Ratio (IC50 compound/IC50 PYY(3-36)) [2] |
| --- | --- | --- |
| B1 | 5.8 | 4.3 |
| B2 | 1.1 | 1 |
| B3 | 0.78 | 0.88 |
| B4 | 1.9 | 2.3 |
| B5 | 1.1 | 0.32 |
| B6 | 1.2 | 1.2 |
| B7 | 14 | 18 |
| B8 | 2.8 | 6.1 |
| B9 | 1 | 0.65 |
| B10 | 1.7 | 2.4 |
| B11 | 1.5 | 1.5 |
| B12 | 1.2 | 1.7 |
